Article doi:10.1101/2021.11.08.467742 (bioRxiv, 2021)
Substitutions are numbered along the chain they refer to. In names and notes the source's numbering stands.

B1: Escherichia coli FtsA, full length (natural protein, E. coli, UniProt P0ABH0 1-420, looked up)
chain: MIKATDRKLVVGLEIGTAKVAALVGEVLPDGMVNIIGVGSCPSRGMDKGGVNDLESVVKCVQRAIDQAELMADCQISSVYLALSGKHISCQNEIGMVPISEEEVTQEDVENVVHTAKSVRVRDEHRVLHVIPQEYAIDYQEGIKNPVGLSGVRMQAKVHLITCHNDMAKNIVKAVERCGLKVDQLIFAGLASSYSVLTEDERELGVCVVDIGGGTMDIAVYTGGALRHTKVIPYAGNVVTSDIAYAFGTPPSDAEAIKVRHGCALGSIVGKDESVEVPSVGGRPPRSLQRQTLAEVIEPRYTELLNLVNEEILQLQEKLRQQGVKHHLAAGIVLTGGAAQIEGLAACAQRVFHTQVRIGAPLNITGLTDYAQEPYYSTAVGLLHYGKESHLNGEAEVEKRVTASVGSWIKRLNSWLRKEF
notes: FtsA, Escherichia coli, full-length protein; also called EcFtsA; E. coli FtsA; source: E. coli C41(DE3), purified (HisTrap, chitin resin with intein cleavage, SEC); not shown: intein-CBD-12H, C-terminal, cleaved
B2: Escherichia coli FtsA G50E (ZipA suppressor and filament architecture mutant), full length (natural protein, E. coli, UniProt P0ABH0 1-420, looked up)
chain: B1 chain with G50E
notes: FtsA, Escherichia coli, full-length protein with G50E; also called EcFtsA^G50E; source: E. coli C41(DE3), purified (HisTrap, chitin resin with intein cleavage, SEC); not shown: intein-CBD-12H, C-terminal, cleaved
B3: Escherichia coli FtsA I143L (FtsN suppressor mutant), full length (natural protein, E. coli, UniProt P0ABH0 1-420, looked up)
chain: B1 chain with I143L
notes: FtsA, Escherichia coli, full-length protein with I143L; also called EcFtsA^I143L; source: E. coli C41(DE3), purified (HisTrap, chitin resin with intein cleavage, SEC); not shown: intein-CBD-12H, C-terminal, cleaved
B4: Escherichia coli FtsA E124A (FtsN suppressor mutant), full length (natural protein, E. coli, UniProt P0ABH0 1-420, looked up)
chain: B1 chain with E124A
notes: FtsA, Escherichia coli, full-length protein with E124A; also called EcFtsA^E124A; source: E. coli C41(DE3), purified (HisTrap, chitin resin with intein cleavage, SEC); not shown: intein-CBD-12H, C-terminal, cleaved

Biological target: the molecule itself
Test: negative stain electron microscopy on supported lipid monolayers; full-length FtsA at 0.1-0.2 mg/ml with 1 mM ATP, without or with FtsN peptide (up to 10-fold molar excess), on E. coli polar lipid monolayers; binding buffer pH 7.7

Row | Protein | binding result
1 | B1 | binds
2 | B2 | binds
3 | B3 | binds
4 | B4 | binds
